# B1: humanized anti-human PD-L1 monoclonal antibody VLS9-VHS1 (antibody, human IgG1, kappa, V domains shown)
# VH: QVQLVQSGAEVKKPGSSVKVSCTASGFNIEDTYIHWVRQAPGQGLEWMGRIDPANGNTKYDPKFQGRVTITADESTSTAYMELSSLRSEDTAVYYCGRGLGAWFAYWGQGTLVTVSS
# VL: DIQMTQSPSSLSASVGDRVTITCKASQDVHTAVAWYQQKPGKAPKLLIYSASNRYTGVPSRFSGSGSGTDFTFTISSLQPEDIATYYCQQHYITPLTFGQGTKLEIKR
# B2: humanized anti-human PD-L1 monoclonal antibody VLS15-VHS11 (antibody, human IgG1, kappa, V domains shown)
# VH: EVQLVQSGAEVKKPGSSVKVSCKASGFNIEDTYIHWVRQAPGQGLEWMGRIDPANGNTKYDPKFQGRVTITADESTNTAYMELSSLRSEDTAVYYCGRGLGAWFAYWGQGTLVTVSS
# VL: DIQMTQSPSSLSASVGDRVTITCKASQDVHTAVAWIQQKPGKSPKLLIYSASNRYTGVPSRFSGSGSGTDFTFTISSLQPEDIATYYCQQHYITPLTFGQGTKLEIKR
# B3: humanized anti-human PD-L1 monoclonal antibody VLS10-VHS3 (antibody, human IgG1, kappa, V domains shown)
# VH: QVQLVQSGAEVKKPGSSVKVSCTASGFNIEDTYIHWVRQAPGQGLEWMGRIDPANGNTKYDPKFQGRVTITADTSTSTAYMELSSLRSEDTAVYYCGRGLGAWFAYWGQGTLVTVSS
# VL: DIQMTQSPSSLSASVGDRVTITCKASQDVHTAVAWIHQKPGKAPKLLIYSASNRYTGVPSRFSGSGSGTDFTFTISSLQPEDIATYYCQQHYITPLTFGQGTKLEIKR
# B4: humanized anti-human PD-L1 monoclonal antibody VLS9-VHS6 (antibody, human IgG1, kappa, V domains shown)
# VH: QVQLVQSGAEVKKPGSSVKVSCTASGFNIEDTYIHWVRQAPGQGLEWMGRIDPANGNTKYDPKFQGRATITADESTNTAYMELSSLRSEDTAVYYCGRGLGAWFAYWGQGTLVTVSS
# VL: DIQMTQSPSSLSASVGDRVTITCKASQDVHTAVAWYQQKPGKAPKLLIYSASNRYTGVPSRFSGSGSGTDFTFTISSLQPEDIATYYCQQHYITPLTFGQGTKLEIKR
# B5: humanized anti-human PD-L1 monoclonal antibody VLS10-VHS2 (antibody, human IgG1, kappa, V domains shown)
# VH: QVQLVQSGAEVKKPGSSVKVSCTASGFNIEDTYIHWVRQAPGQGLEWMGRIDPANGNTKYDPKFQGRATITADESTSTAYMELSSLRSEDTAVYYCGRGLGAWFAYWGQGTLVTVSS
# VL: DIQMTQSPSSLSASVGDRVTITCKASQDVHTAVAWIHQKPGKAPKLLIYSASNRYTGVPSRFSGSGSGTDFTFTISSLQPEDIATYYCQQHYITPLTFGQGTKLEIKR
# B6: humanized anti-human PD-L1 monoclonal antibody VLS9-VHS4 (antibody, human IgG1, kappa, V domains shown)
# VH: QVQLVQSGAEVKKPGSSVKVSCTASGFNIEDTYIHWVRQAPGQGLEWMGRIDPANGNTKYDPKFQGRVTITADESTNTAYMELSSLRSEDTAVYYCGRGLGAWFAYWGQGTLVTVSS
# VL: DIQMTQSPSSLSASVGDRVTITCKASQDVHTAVAWYQQKPGKAPKLLIYSASNRYTGVPSRFSGSGSGTDFTFTISSLQPEDIATYYCQQHYITPLTFGQGTKLEIKR
# B7: humanized anti-human PD-L1 monoclonal antibody VLS9-VHS8 (antibody, human IgG1, kappa, V domains shown)
# VH: QVQLVQSGAEVKKPGSSVKVSCTASGFNIEDTYIHWVRQAPGQGLEWMGRIDPANGNTKYDPKFQGRATITADTSTNTAYMELSSLRSEDTAVYYCGRGLGAWFAYWGQGTLVTVSS
# VL: DIQMTQSPSSLSASVGDRVTITCKASQDVHTAVAWYQQKPGKAPKLLIYSASNRYTGVPSRFSGSGSGTDFTFTISSLQPEDIATYYCQQHYITPLTFGQGTKLEIKR
# B8: humanized anti-human PD-L1 monoclonal antibody VLS9-VHS5 (antibody, human IgG1, kappa, V domains shown)
# VH: QVQLVQSGAEVKKPGSSVKVSCTASGFNIEDTYIHWVRQAPGQGLEWMGRIDPANGNTKYDPKFQGRATITADTSTSTAYMELSSLRSEDTAVYYCGRGLGAWFAYWGQGTLVTVSS
# VL: DIQMTQSPSSLSASVGDRVTITCKASQDVHTAVAWYQQKPGKAPKLLIYSASNRYTGVPSRFSGSGSGTDFTFTISSLQPEDIATYYCQQHYITPLTFGQGTKLEIKR
# B9: humanized anti-human PD-L1 monoclonal antibody VLS15-VHS14 (antibody, human IgG1, kappa, V domains shown)
# VH: EVQLVQSGAEVKKPGSSVKVSCKASGFNIEDTYIHWVRQAPGQGLEWIGRIDPANGNTKYDPKFQGRATITADTSTNTAYMELSSLRSEDTAVYYCGRGLGAWFAYWGQGTLVTVSS
# VL: DIQMTQSPSSLSASVGDRVTITCKASQDVHTAVAWIQQKPGKSPKLLIYSASNRYTGVPSRFSGSGSGTDFTFTISSLQPEDIATYYCQQHYITPLTFGQGTKLEIKR
# B10: humanized anti-human PD-L1 monoclonal antibody VLS15-VHS13 (antibody, human IgG1, kappa, V domains shown)
# VH: EVQLVQSGAEVKKPGSSVKVSCKASGFNIEDTYIHWVRQAPGQGLEWIGRIDPANGNTKYDPKFQGRATITADESTNTAYMELSSLRSEDTAVYYCGRGLGAWFAYWGQGTLVTVSS
# VL: DIQMTQSPSSLSASVGDRVTITCKASQDVHTAVAWIQQKPGKSPKLLIYSASNRYTGVPSRFSGSGSGTDFTFTISSLQPEDIATYYCQQHYITPLTFGQGTKLEIKR
# B11: humanized anti-human PD-L1 monoclonal antibody VLS10-VHS6 (antibody, human IgG1, kappa, V domains shown)
# VH: QVQLVQSGAEVKKPGSSVKVSCTASGFNIEDTYIHWVRQAPGQGLEWMGRIDPANGNTKYDPKFQGRATITADESTNTAYMELSSLRSEDTAVYYCGRGLGAWFAYWGQGTLVTVSS
# VL: DIQMTQSPSSLSASVGDRVTITCKASQDVHTAVAWIHQKPGKAPKLLIYSASNRYTGVPSRFSGSGSGTDFTFTISSLQPEDIATYYCQQHYITPLTFGQGTKLEIKR
# B12: humanized anti-human PD-L1 monoclonal antibody VLS9-VHS3 (antibody, human IgG1, kappa, V domains shown)
# VH: QVQLVQSGAEVKKPGSSVKVSCTASGFNIEDTYIHWVRQAPGQGLEWMGRIDPANGNTKYDPKFQGRVTITADTSTSTAYMELSSLRSEDTAVYYCGRGLGAWFAYWGQGTLVTVSS
# VL: DIQMTQSPSSLSASVGDRVTITCKASQDVHTAVAWYQQKPGKAPKLLIYSASNRYTGVPSRFSGSGSGTDFTFTISSLQPEDIATYYCQQHYITPLTFGQGTKLEIKR
# B13: humanized anti-human PD-L1 monoclonal antibody VLS10-VHS4 (antibody, human IgG1, kappa, V domains shown)
# VH: QVQLVQSGAEVKKPGSSVKVSCTASGFNIEDTYIHWVRQAPGQGLEWMGRIDPANGNTKYDPKFQGRVTITADESTNTAYMELSSLRSEDTAVYYCGRGLGAWFAYWGQGTLVTVSS
# VL: DIQMTQSPSSLSASVGDRVTITCKASQDVHTAVAWIHQKPGKAPKLLIYSASNRYTGVPSRFSGSGSGTDFTFTISSLQPEDIATYYCQQHYITPLTFGQGTKLEIKR
# B14: humanized anti-human PD-L1 monoclonal antibody VLS10-VHS5 (antibody, human IgG1, kappa, V domains shown)
# VH: QVQLVQSGAEVKKPGSSVKVSCTASGFNIEDTYIHWVRQAPGQGLEWMGRIDPANGNTKYDPKFQGRATITADTSTSTAYMELSSLRSEDTAVYYCGRGLGAWFAYWGQGTLVTVSS
# VL: DIQMTQSPSSLSASVGDRVTITCKASQDVHTAVAWIHQKPGKAPKLLIYSASNRYTGVPSRFSGSGSGTDFTFTISSLQPEDIATYYCQQHYITPLTFGQGTKLEIKR
# B15: humanized anti-human PD-L1 monoclonal antibody VLS9-VHS7 (antibody, human IgG1, kappa, V domains shown)
# VH: QVQLVQSGAEVKKPGSSVKVSCTASGFNIEDTYIHWVRQAPGQGLEWMGRIDPANGNTKYDPKFQGRVTITADTSTNTAYMELSSLRSEDTAVYYCGRGLGAWFAYWGQGTLVTVSS
# VL: DIQMTQSPSSLSASVGDRVTITCKASQDVHTAVAWYQQKPGKAPKLLIYSASNRYTGVPSRFSGSGSGTDFTFTISSLQPEDIATYYCQQHYITPLTFGQGTKLEIKR
# B16: humanized anti-human PD-L1 monoclonal antibody VLS10-VHS8 (antibody, human IgG1, kappa, V domains shown)
# VH: QVQLVQSGAEVKKPGSSVKVSCTASGFNIEDTYIHWVRQAPGQGLEWMGRIDPANGNTKYDPKFQGRATITADTSTNTAYMELSSLRSEDTAVYYCGRGLGAWFAYWGQGTLVTVSS
# VL: DIQMTQSPSSLSASVGDRVTITCKASQDVHTAVAWIHQKPGKAPKLLIYSASNRYTGVPSRFSGSGSGTDFTFTISSLQPEDIATYYCQQHYITPLTFGQGTKLEIKR
# B17: humanized anti-human PD-L1 monoclonal antibody VLS10-VHS1 (antibody, human IgG1, kappa, V domains shown)
# VH: QVQLVQSGAEVKKPGSSVKVSCTASGFNIEDTYIHWVRQAPGQGLEWMGRIDPANGNTKYDPKFQGRVTITADESTSTAYMELSSLRSEDTAVYYCGRGLGAWFAYWGQGTLVTVSS
# VL: DIQMTQSPSSLSASVGDRVTITCKASQDVHTAVAWIHQKPGKAPKLLIYSASNRYTGVPSRFSGSGSGTDFTFTISSLQPEDIATYYCQQHYITPLTFGQGTKLEIKR
# B18: humanized anti-human PD-L1 monoclonal antibody VLS9-VHS2 (antibody, human IgG1, kappa, V domains shown)
# VH: QVQLVQSGAEVKKPGSSVKVSCTASGFNIEDTYIHWVRQAPGQGLEWMGRIDPANGNTKYDPKFQGRATITADESTSTAYMELSSLRSEDTAVYYCGRGLGAWFAYWGQGTLVTVSS
# VL: DIQMTQSPSSLSASVGDRVTITCKASQDVHTAVAWYQQKPGKAPKLLIYSASNRYTGVPSRFSGSGSGTDFTFTISSLQPEDIATYYCQQHYITPLTFGQGTKLEIKR
# Target: recombinant human PD-L1 (Sino Biological Inc.) (human, UniProt Q9NZQ7 19-239)
# Sequence (Q9NZQ7 19-239 limits assumed): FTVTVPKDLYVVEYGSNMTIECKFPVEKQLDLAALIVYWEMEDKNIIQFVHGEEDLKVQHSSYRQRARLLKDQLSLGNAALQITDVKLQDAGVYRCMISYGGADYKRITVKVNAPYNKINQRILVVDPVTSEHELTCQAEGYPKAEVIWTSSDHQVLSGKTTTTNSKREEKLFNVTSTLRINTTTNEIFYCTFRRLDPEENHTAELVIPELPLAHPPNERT
# Assay: affinity determination (dissociation constant), method not stated
binder,measurement,value
B1,koff,0.00597 s⁻¹
B2,koff,0.000841 s⁻¹
B3,koff,0.00121 s⁻¹
B4,koff,0.00618 s⁻¹
B5,koff,0.00325 s⁻¹
B6,koff,0.00544 s⁻¹
B7,koff,0.00532 s⁻¹
B8,koff,0.00438 s⁻¹
B9,koff,0.000452 s⁻¹
B10,koff,0.000763 s⁻¹
B11,koff,0.00121 s⁻¹
B12,koff,0.0052 s⁻¹
B13,koff,0.00156 s⁻¹
B14,koff,0.000994 s⁻¹
B15,koff,0.0058 s⁻¹
B16,koff,0.000652 s⁻¹
B17,koff,0.00424 s⁻¹
B18,koff,0.00599 s⁻¹

# — patent US20240301068A1 (BEIJING HANMI PHARMACEUTICAL, published 2024)
